Laboratory results as given in publication PMC12362618, “Development of the First Small-Molecule Inhibitor Targeting Oncostatin M for Treatment of Breast Cancer” (Journal of Medicinal Chemistry, 2025).

Biological target: T1, glycoprotein 130 (UniProt P40189 23-619)
T1 construct: gp130 (glycoprotein 130), bought recombinant protein; also called gp130; source: bought: R&D Systems
T1 sequence (looked up): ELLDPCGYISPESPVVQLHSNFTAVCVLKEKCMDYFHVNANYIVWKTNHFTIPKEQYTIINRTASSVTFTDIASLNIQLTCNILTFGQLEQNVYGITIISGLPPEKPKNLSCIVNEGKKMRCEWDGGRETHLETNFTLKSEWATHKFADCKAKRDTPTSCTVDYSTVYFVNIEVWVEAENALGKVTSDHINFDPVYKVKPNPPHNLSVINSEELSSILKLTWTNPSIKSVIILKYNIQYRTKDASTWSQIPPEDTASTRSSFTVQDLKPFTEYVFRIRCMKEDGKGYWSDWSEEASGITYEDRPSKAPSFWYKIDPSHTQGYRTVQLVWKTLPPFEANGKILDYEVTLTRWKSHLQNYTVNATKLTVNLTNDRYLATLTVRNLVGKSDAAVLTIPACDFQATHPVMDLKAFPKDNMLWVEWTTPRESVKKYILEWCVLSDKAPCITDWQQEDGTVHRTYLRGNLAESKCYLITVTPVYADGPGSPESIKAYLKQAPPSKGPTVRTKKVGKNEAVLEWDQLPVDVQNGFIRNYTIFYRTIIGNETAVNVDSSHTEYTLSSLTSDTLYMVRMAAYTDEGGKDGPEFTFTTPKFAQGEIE
Assay: SPR; kinetics; OSM immobilised by EDC/NHS coupling on a carboxyl mixed self-assembled monolayer gold chip (Reichert SR7000), increasing concentrations of gp130 injected; 25 °C; PBS with 0.005% Tween-20; 30 μL/min
Details: both partners purified

B1: Oncostatin M (ligand, human, UniProt P13725 26-221, looked up)
chain: AAIGSCSKEYRVLLGQLQKQTDLMQDTSRLLDPYIRIQGLDVPKLREHCRERPGAFPSEETLRGLGRRGFLQTLNATLGCVLHRLADLEQRLPKAQDLERSGLNIEDLEKLQMARPNILGLRNNIYCMAQLLDNSDTAEPTKAGRGASQPPTPTPASDAFQRKLEGCRFLHGYHRFMHSVGRVFSKWGESPNRSRR
notes: Oncostatin M, human; about 24 kDa; immobilised for SPR; The construct is only 'as previously described'; also called OSM; source: recombinant OSM, 'as previously described'
For B1, the Kd was 20.5 nM.
